From patent publication US11278600B2, “Human alpha-galactosidase variants” (Codexis, Inc., priority 2014, dated 2022)
Numbering of substitutions follows the chain as printed.

B1: 318 (protein)
chain: LDNGLARTPTMGWLHWERFMCNLDCQEEPDSCISEKLFMEMAELMVSEGWKDAGYEYLCIDDCWMAPQRDSEGRLQADPQRFPHGIRQLANYVHSKGLKFGIYADVGNKTCAGFPGSFGYYDIDAQTFADWGVDLLKFDGCYCDSLENLADGYKHMSLALNRTGRSIVYSCEWPLYMWPFQKPNYTEIRQYCNHWRNFADIDDSWASVKSILDWTSFNQETIVDVAGPGGWNDPDMLVIGNFGLSWNQQVTQMALWAIMAAPLFMSNDLRHISPQAKALLQDKDVIAINQDPLGKQGYQLRQGDNFEVWERPLSGLAWAVAVINRQEIGGPRSYTIAVASLGKGVACNPACFITQLLPVKRKLGFYNWTSRLKSHVNPTGTVLLQLENTMQMSLKDLL
modifications: Synthetic Polypeptide sequence of Variant No. 318 of mature Human GLA
B2: 322 (protein)
chain: B1 chain with V208I, Q302K, V322I, K343D, V376I
modifications: Synthetic Polypeptide sequence of Variant No. 322 of mature Human GLA
B3: 321 (protein)
chain: B1 chain with V208I, T221K, N247D, V322I, K343G, V376I
modifications: Synthetic Polypeptide sequence of Variant No. 321 of mature Human GLA
B4: 329 (protein)
chain: B1 chain with L44R, F100L, T221R, N247D, Q302K, V322I, K343D, V376I
modifications: Synthetic Polypeptide sequence of Variant No. 329 of mature Human GLA
B5: 324 (protein)
chain: B1 chain with L23S, F100L, V208I, T221R, V322I, V376I
modifications: Synthetic Polypeptide sequence of Variant No. 324 of mature Human GLA
B6: 320 (protein)
chain: B1 chain with V208I, T221R, N247D, Q302K, V322I, V376I
modifications: Synthetic Polypeptide sequence of Variant No. 320 of mature Human GLA
B7: 323 (protein)
chain: B1 chain with L160I, V208I, T221K, V376I
modifications: Synthetic Polypeptide sequence of Variant No. 323 of mature Human GLA
B8: 319 (protein)
chain: B1 chain with V208I, T221R, V322I
modifications: Synthetic Polypeptide sequence of Variant No. 319 of mature Human GLA
B9: 325 (protein)
chain: LDNGLARTPTMGWLHWERFMCNLDCQEEPDSCISEKLFMEMAERMVSEGWKDAGYEYLCIDDCWMAPQRDSEGRLQADPQRFPHGIRQLANYVHSKGLKLGIYADVGNKTCAGFPGSFGYYDIDAQTFADWGVDLLKFDGCYCDSLENLADGYKHMSLALNRTGRSIVYSCEWPLYMWPFQKPNYTEIRQYCNHWRNFADIDDSWASIKSILDWTSRNQERIVDVAGPGGWNDPDMLVIGNFGLSWDQQVTQMALWAIMAAPLFMSNDLRHISPQAKALLQDKDVIAINQDPLGKQGYQLRQGDNFEVWERPLSGDAWAVAIINRQEIGGPRSYTIPVASLGGGVACNPACFITQLLPVKRQLGFYNWTSRLKSHINPTGTVLLQLENTMQMSLKDLL
modifications: Synthetic Polypeptide sequence of Variant No. 325 of mature Human GLA
B10: 326 (protein)
chain: B9 chain with Q302K, G343K
modifications: Synthetic Polypeptide sequence of Variant No. 326 of mature Human GLA
B11: 327 (protein)
chain: B9 chain with Q302K, P337A, G343D, A350G
modifications: Synthetic Polypeptide sequence of Variant No. 327 of mature Human GLA
B12: 328 (protein)
chain: B9 chain with D247N, Q302K, D316L, G343K, A350G, Q362K, T369S
modifications: Synthetic Polypeptide sequence of Variant No. 328 of mature Human GLA

Legend:
Assay type in all cases: biochemical
[1] = HTP-analysis of yeast culture supernatants, no challenge (MUGal hydrolysis); conditions: activity of the variant/activity of Rd3BB (SEQ ID NO: 13), yeast culture supernatant
Procedure, shortened: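 GLA variants were expressed in INVSc1 yeast grown in SD-Ura broth with glucose at 30° C., and culture supernatants were collected after 66-84 h. Supernatant was mixed with McIlvaine buffer pH 4.8 and MUGal (2 mM stock) in 50 mM citrate, 200 mM KCl, pH 4.6, incubated at 37° C. for 30-180 minutes, then quenched with sodium carbonate.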

[2] = HTP-analysis of supernatants pretreated with acid (MUGal hydrolysis); conditions: challenge at pH 4.0; activity of the variant/activity of Rd3BB (SEQ ID NO: 13); yeast culture supernatant
Procedure, shortened: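 MUGal hydrolysis was tracked by fluorescence (Ex 355 nm, Em 448 nm) after a 30-180 min reaction at 37° C. in pH 4.8 McIlvaine/citrate buffer, stopped with 1 M sodium carbonate. Beforehand, yeast (INVSc1) culture supernatants carrying GLA variants were held 1-3 h at 37° C. in acidic McIlvaine buffer, pH 3.3-4.3.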

[3] = HTP-analysis of supernatants pretreated with base (MUGal hydrolysis); conditions: challenge at pH 8.2; activity of the variant/activity of Rd3BB (SEQ ID NO: 13); yeast culture supernatant
Procedure, shortened: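 GLA variants secreted from yeast INVSc1; culture supernatants pre-incubated with McIlvaine buffer pH 7.0–8.2 or 200 mM bicarbonate pH 9.1–9.7 at 37° C. for 1–18 h. Residual activity: MUGal (4 mM stock) hydrolysis at pH 4.3–4.8, 37° C., 30–180 min, carbonate quench; fluorescence Ex 355/Em 448 nm.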

[4] = HTP-analysis of supernatants pretreated with bovine serum (MUGal hydrolysis); conditions: activity of the variant/activity of Rd3BB (SEQ ID NO: 13), yeast culture supernatant
Procedure, shortened: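 Yeast INVSc1 culture supernatants containing secreted GLA variants were mixed with bovine serum (20:80) and held 1 h at 37° C. Serum-treated samples then reacted with MUGal (4 mM stock) in citrate/McIlvaine buffer (pH 4.3/4.8) for 180 min at 37° C., were quenched with sodium carbonate, and read by fluorescence (Ex 355, Em 448 nm).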

Row | Molecule | Relative Activity of GLA Variants After No Challenge (NC) [1] | Relative Activity of GLA Variants After Challenge at pH 4.0 [2] | Relative Activity of GLA Variants After Challenge at pH 8.2 [3] | Relative Activity of GLA Variants After Challenge with Serum [4]
1 | B1 | + (+ = 0.5 to 1.5 relative activity over Rd3BB (SEQ ID NO: 13)) | + (+ = 0.5 to 1.5 relative activity over Rd3BB (SEQ ID NO: 13)) | ++ (++ = >1.5 to 2.5 relative activity over Rd3BB (SEQ ID NO: 13)) | + (+ = 0.5 to 1.5 relative activity over Rd3BB (SEQ ID NO: 13))
2 | B2 | + (+ = 0.5 to 1.5 relative activity over Rd3BB (SEQ ID NO: 13)) | + (+ = 0.5 to 1.5 relative activity over Rd3BB (SEQ ID NO: 13)) | ++ (++ = >1.5 to 2.5 relative activity over Rd3BB (SEQ ID NO: 13)) | + (+ = 0.5 to 1.5 relative activity over Rd3BB (SEQ ID NO: 13))
3 | B3 | ++ (++ = >1.5 to 2.5 relative activity over Rd3BB (SEQ ID NO: 13)) | ++ (++ = >1.5 to 2.5 relative activity over Rd3BB (SEQ ID NO: 13)) | +++ (+++ = >2.5 relative activity over Rd3BB (SEQ ID NO: 13)) | + (+ = 0.5 to 1.5 relative activity over Rd3BB (SEQ ID NO: 13))
4 | B4 | + (+ = 0.5 to 1.5 relative activity over Rd3BB (SEQ ID NO: 13)) | ++ (++ = >1.5 to 2.5 relative activity over Rd3BB (SEQ ID NO: 13)) | ++ (++ = >1.5 to 2.5 relative activity over Rd3BB (SEQ ID NO: 13)) | ++ (++ = >1.5 to 2.5 relative activity over Rd3BB (SEQ ID NO: 13))
5 | B5 | − (− = <0.5 relative activity to Rd3BB (SEQ ID NO: 13)) | − (− = <0.5 relative activity to Rd3BB (SEQ ID NO: 13)) | − (− = <0.5 relative activity to Rd3BB (SEQ ID NO: 13)) | − (− = <0.5 relative activity to Rd3BB (SEQ ID NO: 13))
6 | B6 | + (+ = 0.5 to 1.5 relative activity over Rd3BB (SEQ ID NO: 13)) | + (+ = 0.5 to 1.5 relative activity over Rd3BB (SEQ ID NO: 13)) | + (+ = 0.5 to 1.5 relative activity over Rd3BB (SEQ ID NO: 13)) | + (+ = 0.5 to 1.5 relative activity over Rd3BB (SEQ ID NO: 13))
7 | B7 | − (− = <0.5 relative activity to Rd3BB (SEQ ID NO: 13)) | − (− = <0.5 relative activity to Rd3BB (SEQ ID NO: 13)) | − (− = <0.5 relative activity to Rd3BB (SEQ ID NO: 13)) | + (+ = 0.5 to 1.5 relative activity over Rd3BB (SEQ ID NO: 13))
8 | B8 | + (+ = 0.5 to 1.5 relative activity over Rd3BB (SEQ ID NO: 13)) | + (+ = 0.5 to 1.5 relative activity over Rd3BB (SEQ ID NO: 13)) | + (+ = 0.5 to 1.5 relative activity over Rd3BB (SEQ ID NO: 13)) | + (+ = 0.5 to 1.5 relative activity over Rd3BB (SEQ ID NO: 13))
9 | B9 | ++ (++ = >1.5 to 2.5 relative activity over Rd3BB (SEQ ID NO: 13)) | +++ (+++ = >2.5 relative activity over Rd3BB (SEQ ID NO: 13)) | +++ (+++ = >2.5 relative activity over Rd3BB (SEQ ID NO: 13)) | +++ (+++ = >2.5 relative activity over Rd3BB (SEQ ID NO: 13))
10 | B10 | ++ (++ = >1.5 to 2.5 relative activity over Rd3BB (SEQ ID NO: 13)) | +++ (+++ = >2.5 relative activity over Rd3BB (SEQ ID NO: 13)) | +++ (+++ = >2.5 relative activity over Rd3BB (SEQ ID NO: 13)) | +++ (+++ = >2.5 relative activity over Rd3BB (SEQ ID NO: 13))
11 | B11 | ++ (++ = >1.5 to 2.5 relative activity over Rd3BB (SEQ ID NO: 13)) | +++ (+++ = >2.5 relative activity over Rd3BB (SEQ ID NO: 13)) | +++ (+++ = >2.5 relative activity over Rd3BB (SEQ ID NO: 13)) | +++ (+++ = >2.5 relative activity over Rd3BB (SEQ ID NO: 13))
12 | B12 | + (+ = 0.5 to 1.5 relative activity over Rd3BB (SEQ ID NO: 13)) | + (+ = 0.5 to 1.5 relative activity over Rd3BB (SEQ ID NO: 13)) | + (+ = 0.5 to 1.5 relative activity over Rd3BB (SEQ ID NO: 13)) | + (+ = 0.5 to 1.5 relative activity over Rd3BB (SEQ ID NO: 13))
